Experiments:
Test in all cases: BLI
[1] = target: H1 HA (recombinant, Figure 4e) (influenza A virus (H1 subtype, strain …))
[2] = target: H10 JD13 HA trimer (A/Jiangxi-Donghu/346/2013, H10N8) (influenza A virus …)
H1 CA09 stem = target: H1 CA09 stem
[3] = target: H7 AN13 HA trimer (A/Anhui/1/2013) (influenza A virus A/Anhui/1/2013 (H7N9))
[4] = target: H5 VN04 HA trimer (A/Vietnam/1203/2004) (influenza A virus A/Vietnam/1203/2004 …)
[5] = target: H6 HA (recombinant, Figure 4e) (influenza A virus (H6 subtype, strain …))

B1: 789-203-3C12 Fab (Fab, V domains shown)
VH: QVQLQESGPGLVKPSEILSLTCAVSGGSFSSYCWGWIRQPPGKGLEWIGSICGSGGSNYLNPSLKSRVTLSVDTSKNQFSLILNSVTAADTAVYYCAREGITIFGVVIPRVLDSWGQGAVVTVSS
VL: DIQMTQSPSSLSASVGDTVTITCRASQSISSWLAWYQQKPGKAPNLLIYRASTLQSGVPSRFSGSGSGTDFTLTISSLQSEDFATYFCQQSTSSPFTFGPGTKLDIK
[1]
  Kd: 6.59 nM
[2]
  Kd: 81.6 nM
H1 CA09 stem
  Kd: 5.66 nM
[3]
  Kd: 534 nM
[4]
  Kd: 151 nM
[5]
  Kd: 27.5 nM
